According to the supplement of paper PMC5998384:

What was measured:
HeLa Kyoto [1] = experiment: solubility change mitosis vs G1/S (difference of NP-40 vs SDS log2 ratios) (log2 ratio difference); higher = more soluble in mitosis
HeLa Kyoto [2] = experiment: melting temperature (median over replicates), in situ; higher = more thermally stable
HeLa Kyoto [3] = experiment: solubility in G1/S (NP-40 vs SDS abundance) (log2 ratio); higher = more soluble; details: cell cycle stage: G1/S
HeLa Kyoto [4] = experiment: thermal stability score vs G1/S (z-score of summed log2 fold changes over temperatures); higher = more thermally stable than in G1/S
[5] = cell cycle stage: early G1 (4.5 h after nocodazole release)
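Wherever melting temperature (median over replicates), in situ is given: HeLa Kyoto cells synchronized by double thymidine or nocodazole block, proteins quantified by TMT10plex mass spectrometry, three independent biological replicates.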
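Wherever solubility change mitosis vs G1/S (difference of NP-40 vs SDS log2 ratios) is given: synchronized HeLa Kyoto cells (double thymidine block for G1/S, nocodazole release for mitosis), protein amounts in NP-40 versus SDS lysates quantified by mass spectrometry, three biological replicates.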
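Wherever solubility in G1/S (NP-40 vs SDS abundance) is given: HeLa Kyoto cells arrested at G1/S by double thymidine block, proteins quantified by TMT10plex mass spectrometry in mild NP-40 versus SDS extracts, three biological replicates.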
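Wherever thermal stability score vs G1/S (z-score of summed log2 fold changes over temperatures) is given: synchronized HeLa Kyoto cells, proteins quantified by TMT10plex mass spectrometry, three biological replicates, mitosis taken 0.5 h after nocodazole release, G1/S directly after double thymidine block.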

Which results are given for “MPPKVTSELLRQLRQAMRNSEYVTEPIQAYIIPSGDAHQSEYIAPCDCRRAFVSGFDGSAGTAIITEEHAAMWTDGRYFLQAAKQMDSNWTLMKMGLKDTPTQEDWLVSVLPEGSRVGVDPLIIPTDYWKKMAKVLRSAGHHLIPVKENLVDKIWTDRPERPCKPLLTLGLDYTGISWKDKVADLRLKMAERNVMWFVVTALDEIAWLFNLRGSDVEHNPVFFSYAIIGLETIMLFIDGDRIDAPSVKEHLLLDLGLEAEYRIQVHPYKSILSELKALCADLSPREKVWVSDKASYAVSETIPKDHRCCMPYTPICIAKAVKNSAESEGMRRAHIKDAVALCELFNWLEKEVPKGGVTEISAADKAEEFRRQQADFVDLSFPTISSTGPNGAIIHYAPVPETNRTLSLDEVYLIDSGAQYKDGTTDVTRTMHFGTPTAYEKECFTYVLKGHIAVSAAVFPTGTKGHLLDSFARSALWDSGLDYLHGTGHGVGSFLNVHEGPCGISYKTFSDEPLEAGMIVTDEPGYYEDGAFGIRIENVVLVVPVKTKYNFNNRGSLTFEPLTLVPIQTKMIDVDSLTDKECDWLNNYHLTCRDVIGKELQKQGRQEALEWLIRETQPISKQH [XPNPEP1]”?
solubility change mitosis (log2) (HeLa Kyoto [1]): -0.14; melting temperature (HeLa Kyoto [2]; cell cycle stage: G1/S): 53 °C; melting temperature (HeLa Kyoto [2]; cell cycle stage: mitosis): 51.9 °C; solubility in G1/S (log2) (HeLa Kyoto [3]): 0.105; thermal stability score (HeLa Kyoto [4]; [5]): -1; thermal stability score (HeLa Kyoto [4]; cell cycle stage: mitosis): -3.97

For “MPPPQGDVTALFLGPPGLGKSALIAALCDKDVETLEAPEGRPDSGVPSLRAAGPGLFLGELSCPPAAPGPWAAEANVLVLVLPGPEGNGEPLAPALGEAALAALARGTPLLAVRNLRPGDSQTAAQARDQTAALLNSAGLGAADLFVLPANCGSSDGCEELERLRAALQSQAEALRRLLPPAQDGFEVLGAAELEAVREAFETGGLEAALSWVRSGLERLGSARLDLAVAGKADVGLVVDMLLGLDPGDPGAAPASVPTAPTPFPAPERPNVVLWTVPLGHTGTATTAAAASHPTHYDALILVTPGAPTEKDWAQVQALLLPDAPLVCVRTDGEGEDPECLGEGKMENPKGESLKNAGGGGLENALSKGREKCSAGSQKAGSGEGPGKAGSEGLQQVVGMKKSGGGDSERAAALSPEDETWEVLEEAPPPVFPLRPGGLPGLCEWLRRALPPAQAGALLLALPPASPSAARTKAAALRAGAWRPALLASLAAAAAPLPGLGWACDVALLRGQLAEWRRGLGLEPTALARRERALGLASGELAARAHFPGPVTRAEVEARLGAWAGEGTAGGAALGALSFLWPAGGAAATGGLGYRAAHGVLLQALDEMRADAEAVLAPPEPAQ [IRGQ]”, which “solubility change mitosis (log2)” value (HeLa Kyoto [1]) is on record?
The value was 0.141.

And the melting temperature (HeLa Kyoto [2]; cell cycle stage: G1/S)?
The melting temperature was 51.3 °C.

What about the melting temperature (HeLa Kyoto [2]; cell cycle stage: mitosis) of the same sequence?
Its melting temperature is 51.3 °C.

And the “solubility in G1/S (log2)” value (HeLa Kyoto [3])?
Its value is 0.437.

And the thermal stability score (HeLa Kyoto [4]; [5])?
The thermal stability score was -0.649.

What about the thermal stability score (HeLa Kyoto [4]; cell cycle stage: mitosis) of the same sequence?
Its thermal stability score is 0.0432.

How did the “solubility change mitosis (log2)” value (HeLa Kyoto [1]) turn out when “MPPPSDIVKVAIEWPGANAQLLEIDQKRPLASIIKEVCDGWSLPNPEYYTLRYADGPQLYITEQTRSDIKNGTILQLAISPSRAARQLMERTQSSNMETRLDAMKELAKLSADVTFATEFINMDGIIVLTRLVESGTKLLSHYSEMLAFTLTAFLELMDHGIVSWDMVSITFIKQIAGYVSQPMVDVSILQRSLAILESMVLNSQSLYQKIAEEITVGQLISHLQVSNQEIQTYAIALINALFLKAPEDKRQDMANAFAQKHLRSIILNHVIRGNRPIKTEMAHQLYVLQVLTFNLLEERMMTKMDPNDQAQRDIIFELRRIAFDAESDPSNAPGSGTEKRKAMYTKDYKMLGFTNHINPAMDFTQTPPGMLALDNMLYLAKVHQDTYIRIVLENSSREDKHECPFGRSAIELTKMLCEILQVGELPNEGRNDYHPMFFTHDRAFEELFGICIQLLNKTWKEMRATAEDFNKVMQVVREQITRALPSKPNSLDQFKSKLRSLSYSEILRLRQSERMSQDDFQSPPIVELREKIQPEILELIKQQRLNRLCEGSSFRKIGNRRRQERFWYCRLALNHKVLHYGDLDDNPQGEVTFESLQEKIPVADIKAIVTGKDCPHMKEKSALKQNKEVLELAFSILYDPDETLNFIAPNKYEYCIWIDGLSALLGKDMSSELTKSDLDTLLSMEMKLRLLDLENIQIPEAPPPIPKEPSSYDFVYHYG [ELMO2]” was run?
The value was -0.134.

And the melting temperature (HeLa Kyoto [2]; cell cycle stage: G1/S)?
The melting temperature was 49.5 °C.

And the melting temperature (HeLa Kyoto [2]; cell cycle stage: mitosis)?
Its melting temperature is 49.5 °C.

What about the “solubility in G1/S (log2)” value (HeLa Kyoto [3]) of the same sequence?
The value was 0.00667.

And the thermal stability score (HeLa Kyoto [4]; [5])?
Its thermal stability score is 0.0114.

And the thermal stability score (HeLa Kyoto [4]; cell cycle stage: mitosis)?
Its thermal stability score is 0.0809.

With “MPQTRSQAQATISFPKRKLSRALNKAKNSSDAKLEPTNVQTVTCSPRVKALPLSPRKRLGDDNLCNTPHLPPCSPPKQGKKENGPPHSHTLKGRRLVFDNQLTIKSPSKRELAKVHQNKILSSVRKSQEITTNSEQRCPLKKESACVRLFKQEGTCYQQAKLVLNTAVPDRLPAREREMDVIRNFLREHICGKKAGSLYLSGAPGTGKTACLSRILQDLKKELKGFKTIMLNCMSLRTAQAVFPAIAQEICQEEVSRPAGKDMMRKLEKHMTAEKGPMIVLVLDEMDQLDSKGQDVLYTLFEWPWLSNSHLVLIGIANTLDLTDRILPRLQAREKCKPQLLNFPPYTRNQIVTILQDRLNQVSRDQVLDNAAVQFCARKVSAVSGDVRKALDVCRRAIEIVESDVKSQTILKPLSECKSPSEPLIPKRVGLIHISQVISEVDGNRMTLSQEGAQDSFPLQQKILVCSLMLLIRQLKIKEVTLGKLYEAYSKVCRKQQVAAVDQSECLSLSGLLEARGILGLKRNKETRLTKVFFKIEEKEIEHALKDKALIGNILATGLP [CDC6]” as the sequence, how does the “solubility change mitosis (log2)” value (HeLa Kyoto [1]) read?
Its value is 0.351.

What about the melting temperature (HeLa Kyoto [2]; cell cycle stage: G1/S) of the same sequence?
The melting temperature was 50.1 °C.

And the melting temperature (HeLa Kyoto [2]; cell cycle stage: mitosis)?
Its melting temperature is 53.2 °C.

What about the “solubility in G1/S (log2)” value (HeLa Kyoto [3]) of the same sequence?
The value was -0.114.

What about the thermal stability score (HeLa Kyoto [4]; [5]) of the same sequence?
Its thermal stability score is 0.564.

And the thermal stability score (HeLa Kyoto [4]; cell cycle stage: mitosis)?
Its thermal stability score is 0.496.

How did the “solubility change mitosis (log2)” value (HeLa Kyoto [1]) turn out when “MPRAPAPLYACLLGLCALLPRLAGLNICTSGSATSCEECLLIHPKCAWCSKEDFGSPRSITSRCDLRANLVKNGCGGEIESPASSFHVLRSLPLSSKGSGSAGWDVIQMTPQEIAVNLRPGDKTTFQLQVRQVEDYPVDLYYLMDLSLSMKDDLDNIRSLGTKLAEEMRKLTSNFRLGFGSFVDKDISPFSYTAPRYQTNPCIGYKLFPNCVPSFGFRHLLPLTDRVDSFNEEVRKQRVSRNRDAPEGGFDAVLQAAVCKEKIGWRKDALHLLVFTTDDVPHIALDGKLGGLVQPHDGQCHLNEANEYTASNQMDYPSLALLGEKLAENNINLIFAVTKNHYMLYKNFTALIPGTTVEILDGDSKNIIQLIINAYNSIRSKVELSVWDQPEDLNLFFTATCQDGVSYPGQRKCEGLKIGDTASFEVSLEARSCPSRHTEHVFALRPVGFRDSLEVGVTYNCTCGCSVGLEPNSARCNGSGTYVCGLCECSPGYLGTRCECQDGENQSVYQNLCREAEGKPLCSGRGDCSCNQCSCFESEFGKIYGPFCECDNFSCARNKGVLCSGHGECHCGECKCHAGYIGDNCNCSTDISTCRGRDGQICSERGHCLCGQCQCTEPGAFGEMCEKCPTCPDACSTKRDCVECLLLHSGKPDNQTCHSLCRDEVITWVDTIVKDDQEAVLCFYKTAKDCVMMFTYVELPSGKSNLTVLREPECGNTPNAMTILLAVVGSILLVGLALLAIWKLLVTIHDRREFAKFQSERSRARYEMASNPLYRKPISTHTVDFTFNKFNKSYNGTVD [ITGB5]” was run?
The value was 0.0246.

And the melting temperature (HeLa Kyoto [2]; cell cycle stage: G1/S)?
The melting temperature was 56 °C.

And the melting temperature (HeLa Kyoto [2]; cell cycle stage: mitosis)?
Its melting temperature is 56.7 °C.

What about the “solubility in G1/S (log2)” value (HeLa Kyoto [3]) of the same sequence?
Its value is -0.15.

What about the thermal stability score (HeLa Kyoto [4]; [5]) of the same sequence?
The thermal stability score was 0.876.

What about the thermal stability score (HeLa Kyoto [4]; cell cycle stage: mitosis) of the same sequence?
The thermal stability score was 3.15.

Which “solubility change mitosis (log2)” value (HeLa Kyoto [1]) does the source give for “MPRVKAAQAGRQSSAKRHLAEQFAVGEIITDMAKKEWKVGLPIGQGGFGCIYLADMNSSESVGSDAPCVVKVEPSDNGPLFTELKFYQRAAKPEQIQKWIRTRKLKYLGVPKYWGSGLHDKNGKSYRFMIMDRFGSDLQKIYEANAKRFSRKTVLQLSLRILDILEYIHEHEYVHGDIKASNLLLNYKNPDQVYLVDYGLAYRYCPEGVHKEYKEDPKRCHDGTIEFTSIDAHNGVAPSRRGDLEILGYCMIQWLTGHLPWEDNLKDPKYVRDSKIRYRENIASLMDKCFPEKNKPGEIAKYMETVKLLDYTEKPLYENLRDILLQGLKAIGSKDDGKLDLSVVENGGLKAKTITKKRKKEIEESKEPGVEDTEWSNTQTEEAIQTRSRTRKRVQK [VRK1]” here?
The value was -0.0401.

What about the melting temperature (HeLa Kyoto [2]; cell cycle stage: G1/S) of the same sequence?
Its melting temperature is 48.2 °C.

What about the melting temperature (HeLa Kyoto [2]; cell cycle stage: mitosis) of the same sequence?
Its melting temperature is 49.8 °C.

And the “solubility in G1/S (log2)” value (HeLa Kyoto [3])?
Its value is -0.215.

And the thermal stability score (HeLa Kyoto [4]; [5])?
The thermal stability score was 3.16.

And the thermal stability score (HeLa Kyoto [4]; cell cycle stage: mitosis)?
Its thermal stability score is 3.91.

Which results are given for “MPRVVPDQRSKFENEEFFRKLSRECEIKYTGFRDRPHEERQARFQNACRDGRSEIAFVATGTNLSLQFFPASWQGEQRQTPSREYVDLEREAGKVYLKAPMILNGVCVIWKGWIDLQRLDGMGCLEFDEERAQQEDALAQQAFEEARRRTREFEDRDRSHREEMEVRVSQLLAVTGKKTTRP [CBFB]”?
solubility change mitosis (log2) (HeLa Kyoto [1]): -0.072; melting temperature (HeLa Kyoto [2]; cell cycle stage: G1/S): 49 °C; melting temperature (HeLa Kyoto [2]; cell cycle stage: mitosis): 51.2 °C; solubility in G1/S (log2) (HeLa Kyoto [3]): 0.199; thermal stability score (HeLa Kyoto [4]; [5]): 0.755; thermal stability score (HeLa Kyoto [4]; cell cycle stage: mitosis): 0.955

For “MPRVYIGRLSYQARERDVERFFKGYGKILEVDLKNGYGFVEFDDLRDADDAVYELNGKDLCGERVIVEHARGPRRDGSYGSGRSGYGYRRSGRDKYGPPTRTEYRLIVENLSSRCSWQDLKDYMRQAGEVTYADAHKGRKNEGVIEFVSYSDMKRALEKLDGTEVNGRKIRLVEDKPGSRRRRSYSRSRSHSRSRSRSRHSRKSRSRSGSSKSSHSKSRSRSRSGSRSRSKSRSRSQSRSRSKKEKSRSPSKEKSRSRSHSAGKSRSKSKDQAEEKIQNNDNVGKPKSRSPSRHKSKSKSRSRSQERRVEEEKRGSVSRGRSQEKSLRQSRSRSRSKGGSRSRSRSRSKSKDKRKGRKRSREESRSRSRSRSKSERSRKRGSKRDSKAGSSKKKKKEDTDRSQSRSPSRSVSKEREHAKSESSQREGRGESENAGTNQETRSRSRSNSKSKPNLPSESRSRSKSASKTRSRSKSRSRSASRSPSRSRSRSHSRS [SRSF4]”, which “solubility change mitosis (log2)” value (HeLa Kyoto [1]) is on record?
Its value is 0.361.

And the melting temperature (HeLa Kyoto [2]; cell cycle stage: G1/S)?
The melting temperature was 50.7 °C.

And the melting temperature (HeLa Kyoto [2]; cell cycle stage: mitosis)?
The melting temperature was 50.2 °C.

And the “solubility in G1/S (log2)” value (HeLa Kyoto [3])?
The value was -0.671.

What about the thermal stability score (HeLa Kyoto [4]; [5]) of the same sequence?
The thermal stability score was -1.55.

What about the thermal stability score (HeLa Kyoto [4]; cell cycle stage: mitosis) of the same sequence?
The thermal stability score was -1.
